Data reported in the supplement of paper PMC5998384.

Assays:
HeLa Kyoto [1] = assay: solubility in G1/S (NP-40 vs SDS abundance) (log2 ratio); higher = more soluble; conditions: cell cycle stage: G1/S
HeLa Kyoto [2] = assay: solubility change mitosis vs G1/S (difference of NP-40 vs SDS log2 ratios) (log2 ratio difference); higher = more soluble in mitosis
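Wherever solubility change mitosis vs G1/S (difference of NP-40 vs SDS log2 ratios) is given: synchronized HeLa Kyoto cells (double thymidine block for G1/S, nocodazole release for mitosis), protein amounts in NP-40 versus SDS lysates quantified by mass spectrometry, three biological replicates.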
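Wherever solubility in G1/S (NP-40 vs SDS abundance) is given: HeLa Kyoto cells arrested at G1/S by double thymidine block, proteins quantified by TMT10plex mass spectrometry in mild NP-40 versus SDS extracts, three biological replicates.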

Row | Sequence | solubility in G1/S (log2) (HeLa Kyoto [1]) | solubility change mitosis (log2) (HeLa Kyoto [2])
1 | MDWKEVLRRRLATPNTCPNKKKSEQELKDEEMDLFTKYYSEWKGGRKNTNEFYKTIPRFYYRLPAEDEVLLQKLREESRAVFLQRKSRELLDNEELQNLWFLLDKHQTPPMIGEEAMINYENFLKVGEKAGAKCKQFFTAKVFAKLLHTDSYGRISIMQFFNYVMRKVWLHQTRIGLSLYDVAGQGYLRESDLENYILELIPTLPQLDGLEKSFYSFYVCTAVRKFFFFLDPLRTGKIKIQDILACSFLDDLLELRDEELSKESQETNWFSAPSALRVYGQYLNLDKDHNGMLSKEELSRYGTATMTNVFLDRVFQECLTYDGEMDYKTYLDFVLALENRKEPAALQYIFKLLDIENKGYLNVFSLNYFFRAIQELMKIHGQDPVSFQDVKDEIFDMVKPKDPLKISLQDLINSNQGDTVTTILIDLNGFWTYENREALVANDSENSADLDDT [C14ORF10] | -0.0201 | -0.0757
2 | MEAPPVTMMPVTGGTINMMEYLLQGSVLDHSLESLIHRLRGLCDNMEPETFLDHEMVFLLKGQQASPFVLRARRSMDRAGAPWHLRYLGQPEMGDKNRHALVRNCVDIATSENLTDFLMEMGFRMDHEFVAKGHLFRKGIMKIMVYKIFRILVPGNTDSTEALSLSYLVELSVVAPAGQDMVSDDMKNFAEQLKPLVHLEKIDPKRLM [MED18] | 0.212 | -0.161
3 | MEDGVLKEGFLVKRGHIVHNWKARWFILRQNTLVYYKLEGGRRVTPPKGRILLDGCTITCPCLEYENRPLLIKLKTQTSTEYFLEACSREERDAWAFEITGAIHAGQPGKVQQLHSLRNSFKLPPHISLHRIVDKMHDSNTGIRSSPNMEQGSTYKKTFLGSSLVDWLISNSFTASRLEAVTLASMLMEENFLRPVGVRSMGAIRSGDLAEQFLDDSTALYTFAESYKKKISPKEEISLSTVELSGTVVKQGYLAKQGHKRKNWKVRRFVLRKDPAFLHYYDPSKEENRPVGGFSLRGSLVSALEDNGVPTGVKGNVQGNLFKVITKDDTHYYIQASSKAERAEWIEAIKKLT [PLEK2] | -0.00783 | -0.0462
4 | MEDLEEDVRFIVDETLDFGGLSPSDSREEEDITVLVTPEKPLRRGLSHRSDPNAVAPAPQGVRLSLGPLSPEKLEEILDEANRLAAQLEQCALQDRESAGEGLGPRRVKPSPRRETFVLKDSPVRDLLPTVNSLTRSTPSPSSLTPRLRSNDRKGSVRALRATSGKRPSNMKRESPTCNLFPASKSPASSPLTRSTPPVRGRAGPSGRAAASEETRAAKLRVSGSGEFVGLTLKFLHPSPPGPPTPIRSVLAPQPSTSNSQRLPRPQGAAAKSSSQLPIPSAIPRPASRMPLTSRSVPPGRGALPPDSLSTRKGLPRPSTAGHRVRESGHKVPVSQRLNLPVMGATRSNLQPPRKVAVPGPTR [PSRC1] | -0.152 | 0.803
5 | MEEEQDLPEQPVKKAKMQESGEQTISQVSNPDVSDQKPETSSLASNLPMSEEIMTCTDYIPRSSNDYTSQMYSAKPYAHILSVPVSETAYPGQTQYQTLQQTQPYAVYPQATQTYGLPPFGALWPGMKPESGLIQTPSPSQHSVLTCTTGLTTSQPSPAHYSYPIQASSTNASLISTSSTIANIPAAAVASISNQDYPTYTILGQNQYQACYPSSSFGVTGQTNSDAESTTLAATTYQSEKPSVMAPAPAAQRLSSGDPSTSPSLSQTTPSKDTDDQSRKNMTSKNRGKRKADATSSQDSELERVFLWDLDETIIIFHSLLTGSYAQKYGKDPTVVIGSGLTMEEMIFEVADTHLFFNDLEECDQVHVEDVASDDNGQDLSNYSFSTDGFSGSGGSGSHGSSVGVQGGVDWMRKLAFRYRKVREIYDKHKSNVGGLLSPQRKEALQRLRAEIEVLTDSWLGTALKSLLLIQSRKNCVNVLITTTQLVPALAKVLLYGLGEIFPIENIYSATKIGKESCFERIVSRFGKKVTYVVIGDGRDEEIAAKQHNMPFWRITNHGDLVSLHQALELDFL [EYA3] | -0.0392 | -0.0147
6 | MEEFDLVKTLHKTSSSVGSDENSLHSLGLNLNTDRSSPHLSTNGVSSFSGKTRPSVIQGTVEVLTSLMQELQNSGKTDSELWKNCETRWLQLFNLVEKQCQEQIVAQQEQFHNQIQHIQEEIKNLVKLQTSSASLASCEGNSSNKQVSSESQMGFFSLSSERNESVIHYPESTEPEIQQEMSTSQPDCNVDSCSVSSGYGTFCISELNLYKSKDPKEFMEHIDVPKGQYVAPAVPAESLVDGVKNENFYIQTPEECHVSLKEDVSISPGEFEHNFLGENKVSEVYSGKTNSNAITSWAQKLKQNQPKRAHVEDGGSRSKQGNEQSKKTPIEKSDFAAATHPRAFYLSKPDETPNAWMSDSGTGLTYWKLEEKDMHHSLPETLEKTFISLSSTDVSPNQSNTSNEMKLPSLKDIYYKKQRENKQLPERNLTSASNPNHPPEVLTLDPTLHMKPKQQISGIQPHGLPNALDDRISFSPDSVLEPSMSSPSDIDSFSQASNVTSQLPGFPKYPSHTKASPVDSWKNQTFQNESRTSSTFPSVYTITSNDISVNTVDEENTVMVASASVSQSQLPGTANSVPECISLTSLEDPVILSKIRQNLKEKHARHIADLRAYYESEINSLKQKLEAKEISGVEDWKITNQILVDRCGQLDSALHEATSRVRTLENKNNLLEIEVNDLRERFSAASSASKILQERIEEMRTSSKEKDNTIIRLKSRLQDLEEAFENAYKLSDDKEAQLKQENKMFQDLLGEYESLGKEHRRVKDALNTTENKLLDAYTQISDLKRMISKLEAQVKQVEHENMLSLRHNSRIHVRPSRANTLATSDVSRRKWLIPGAEYSIFTGQPLDTQDSNVDNQLEETCSLGHRSPLEKDSSPGSSSTSLLIKKQRETSDTPIMRALKELDEGKIFKNWGTQTEKEDTSNINPRQTETSVNASRSPEKCAQQRQKRLNSASQRSSSLPPSNRKSSTPTKREIMLTPVTVAYSPKRSPKENLSPGFSHLLSKNESSPIRFDILLDDLDTVPVSTLQRTNPRKQLQFLPLDDSEEKTYSEKATDNHVNHSSCPEPVPNGVKKVSVRTAWEKNKSVSYEQCKPVSVTPQGNDFEYTAKIRTLAETERFFDELTKEKDQIEAALSRMPSPGGRITLQTRLNQEALEDRLERINRELGSVRMTLKKFHVLRTSANL [MPHOSPH9] | -0.0212 | 0.149
7 | MEEKPSGPIPDMLATAEPSSSETDKEVLSPAVPAAAPSSSMSEEPGPEQAATPPVWERGGAGGMQQGSSPAPDSCQPGPGPSPGLTSIVSGTSEDLRPPRRRPPPGKQIPCSSPGCCLSFPSVRDLAQHLRTHCPPTQSLEGKLFRCSALSCTETFPSMQELVAHSKLHYKPNRYFKCENCLLRFRTHRSLFKHLHVCAEHAQSPAPPPPPALDREPPAPERPPEVDPASAPGLPFPLLEPFTTPAPAPTGPFLPYLNPAPFGLSPPRLRPFLAAAPGPPASSAAVWKKSQGAGSSPRRPQGGSDAPSGACR [ZNF414] | -0.217 | -0.445
8 | MEEKYGGDVLAGPGGGGGLGPVDVPSARLTKYIVLLCFTKFLKAVGLFESYDLLKAVHIVQFIFILKLGTAFFMVLFQKPFSSGKTITKHQWIKIFKHAVAGCIISLLWFFGLTLCGPLRTLLLFEHSDIVVISLLSVLFTSSGGGPAKTRGAAFFIIAVICLLLFDNDDLMAKMAEHPEGHHDSALTHMLYTAIAFLGVADHKGGVLLLVLALCCKVGFHTASRKLSVDVGGAKRLQALSHLVSVLLLCPWVIVLSVTTESKVESWFSLIMPFATVIFFVMILDFYVDSICSVKMEVSKCARYGSFPIFISALLFGNFWTHPITDQLRAMNKAAHQESTEHVLSGGVVVSAIFFILSANILSSPSKRGQKGTLIGYSPEGTPLYNFMGDAFQHSSQSIPRFIKESLKQILEESDSRQIFYFLCLNLLFTFVELFYGVLTNSLGLISDGFHMLFDCSALVMGLFAALMSRWKATRIFSYGYGRIEILSGFINGLFLIVIAFFVFMESVARLIDPPELDTHMLTPVSVGGLIVNLIGICAFSHAHSHAHGASQGSCHSSDHSHSHHMHGHSDHGHGHSHGSAGGGMNANMRGVFLHVLADTLGSIGVIVSTVLIEQFGWFIADPLCSLFIAILIFLSVVPLIKDACQVLLLRLPPEYEKELHIALEKIQKIEGLISYRDPHFWRHSASIVAGTIHIQVTSDVLEQRIVQQVTGILKDAGVNNLTIQVEKEAYFQHMSGLSTGFHDVLAMTKQMESMKYCKDGTYIM [SLC30A5] | -0.143 | -0.241
